Legend:
Details in all cases: 20 nM; 72 h
MCF10A [1] = assay: percent viability (nuclei count relative to siNT); higher = more viable cells
Method: (§1)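 After 72 h, cells were fixed and stained with Hoechst and anti-fibrillarin, and nucleoli per nucleus were counted with CellProfiler. Values are plate-adjusted percent effect for the one-nucleolus and 5+ nucleoli phenotypes, normalised to siNT (0%) and to the positive controls siNOL11 or siKIF11 (100%), as the mean of biological triplicates. Percent viability is the nuclei count relative to siNT.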

MCF10A [2] = assay: 5+ nucleoli phenotype percent effect (relative to siNT 0% and siKIF11 100%); higher = more cells with five or more nucleoli
Method: as §1

MCF10A [3] = assay: one-nucleolus phenotype percent effect (relative to siNT 0% and siNOL11 100%); higher = more cells with one nucleolus (ribosome biogenesis inhibition)
Method: as §1

| Sequence | percent viability (MCF10A [1]) [%] | 5+ nucleoli phenotype percent effect (MCF10A [2]) [%] | one-nucleolus phenotype percent effect (MCF10A [3]) [%] |
| --- | --- | --- | --- |
| GCGGGGCUGGGCGCGCG [hsa-miR-4508] | 90.5 | 29.5 | -26.4 |
| GCGACUCUGAAAACUAGAAGGU [hsa-miR-4431] | 82.9 | 34.2 | -23.7 |
| UCCUGCCUUCCUCUGCACCAG [hsa-miR-6747-3p] | 27 | -28.9 | 16 |
| AACAUCACUGCAAGUCUUAACA [hsa-miR-499b-3p] | 77 | -7.16 | -24.7 |
| AAAGGUCAUUGUAAGGUUAAUGC [hsa-miR-3974] | 39.8 | -42 | 63.7 |
| GAUCUCACUUUGUUGCCCAGG [hsa-miR-1285-5p] | 43.4 | 15.8 | -20.8 |
| UAACAGUCUACAGCCAUGGUCG [hsa-miR-132-3p] | 112 | -13.6 | -5.13 |
| ACUCAAAACCCUUCAGUGACUU [hsa-miR-616-5p] | 93.6 | 21.5 | -11.3 |
| UAAAACUUUAAGUGUGCCUAGG [hsa-miR-5582-3p] | 72.9 | 7.07 | -11.3 |
| CGGCUGGAGGUGUGAGGA [hsa-miR-3652] | 24 | -23.6 | 44.8 |
| GUGAGUGUGGAUUUGGCGGGGUU [hsa-miR-6790-5p] | 31.8 | -26 | 18.2 |
| UAGUGGUCCUAAACAUUUCACA [hsa-miR-203b-5p] | 15.6 | -42.9 | 58.6 |
| UUAUUGCUUAAGAAUACGCGUAG [hsa-miR-137] | 114 | -22.6 | 47.7 |
| UAAGUGCUUCCAUGUUUUGGUGA [hsa-miR-302a-3p] | 78.9 | 72.3 | -15.9 |
| GUGGGGCCAGGCGGUGG [hsa-miR-1227-5p] | 78.5 | 55.1 | -31 |
| UAUCCAGCUUGUUACUAUAUGC [hsa-miR-5586-5p] | 47.2 | 7.77 | -0.119 |
| UCUCUCGGCUCCUCGCGGCUC [hsa-miR-3615] | 69.8 | 27.8 | -7.12 |
| UGAGGAGAUCGUCGAGGUUGG [hsa-miR-3150b-3p] | 47.3 | 24.3 | -11.7 |
| UCGCCUCCUCCUCUCCC [hsa-miR-1281] | 60.9 | -24.6 | 10.9 |
| AGACCAUGGGUUCUCAUUGU [hsa-miR-591] | 84.8 | 10.2 | -3.76 |

| Sequence | percent viability (MCF10A [1]) [%] | 5+ nucleoli phenotype percent effect (MCF10A [2]) [%] | one-nucleolus phenotype percent effect (MCF10A [3]) [%] |
| --- | --- | --- | --- |
| GGGGGAAGAAAAGGUGGGG [hsa-miR-4271] | 72.2 | 20.1 | -5.03 |
| GUGAGGAGGGGCUGGCAGGGAC [hsa-miR-6858-5p] | 84.1 | 7.04 | -12.2 |
| UAGCACCAUUUGAAAUCGGUUA [hsa-miR-29c-3p] | 138 | 38 | -21 |
| UGGGGGAGCCAUGAGAUAAGAGCA [hsa-miR-4723-5p] | 43.6 | 2.14 | 21.2 |
| UGUGGGAUCUGGAGGCAUCUGG [hsa-miR-4654] | 38.8 | -29.4 | 6.3 |
| AACUCUAGCCUGAGCAACAG [hsa-miR-5684] | 40.5 | -2.91 | 2.62 |
| GAAAGCGCUUCCCUUUGCUGGA [hsa-miR-518a-3p] | 59.1 | -15.5 | 17.4 |
| UUCUGAGCUGAGGACAG [hsa-miR-4303] | 45.5 | -10.7 | -2.54 |
| UAAGUGCUUCCAUGCUU [hsa-miR-302e] | 93.6 | 65.3 | -16.8 |
| UGACCUGGGACUCGGACAGCUG [hsa-miR-3661] | 31.7 | -25.2 | 35.2 |
| AGGCAGUGUAGUUAGCUGAUUGC [hsa-miR-34c-5p] | 13.2 | -6.79 | 38.8 |
| UGGCCCUUUGUACCCCUCCAG [hsa-miR-6851-3p] | 49.2 | 54.7 | -21.4 |
| UGGGCGAGGGCGGCUGAGCGGC [hsa-miR-6729-5p] | 29 | -3.58 | 6.3 |
| CUUAGACUGCCAGACUCCCUGA [hsa-miR-7702] | 163 | 59.3 | -29.9 |
| CGGGGCGGCAGGGGCCUC [hsa-miR-3196] | 13.7 | -24.6 | 66 |
| ACUGGCAUUAGUGGGACUUUU [hsa-miR-5588-5p] | 46.1 | 33.4 | -3.93 |
| GGGAUGGUAGACCGGUGACGUGC [hsa-miR-1193] | 24.3 | -23 | 19.2 |
| AGAGGUAGGUGUGGAAGAA [hsa-miR-4458] | 42.7 | 36.9 | -20.7 |
| AGUGAAUGAUGGGUUCUGACC [hsa-miR-1257] | 25.9 | -35.8 | 45.3 |
| ACUCGCAUCCUUCCCUUGGCAG [hsa-miR-6814-3p] | 118 | 32.1 | -25.3 |

| Sequence | percent viability (MCF10A [1]) [%] | 5+ nucleoli phenotype percent effect (MCF10A [2]) [%] | one-nucleolus phenotype percent effect (MCF10A [3]) [%] |
| --- | --- | --- | --- |
| CCAAUUACCACUUCUUU [hsa-miR-4275] | 74.6 | 23.8 | -17.6 |
| UUCGGUAUACUUUGUGAAUUGG [hsa-miR-4798-5p] | 78.1 | -0.701 | 0.862 |
| UCAGGGUUGGUAGGGGUUGCU [hsa-miR-6823-5p] | 22.1 | -11.9 | 19.8 |
| AGACACAUUUGGAGAGGGACCC [hsa-miR-642b-3p] | 71.1 | -6.68 | -3.17 |
| UUAUGGUUUGCCUGGGACUGAG [hsa-miR-584-5p] | 77.9 | 35 | -25.7 |
| UGAAGCGCCUGUGCUCUGCCGAGA [hsa-miR-7706] | 40.2 | 12.3 | -18.1 |
| AAAAUGGUUCCCUUUAGAGUGU [hsa-miR-522-3p] | 66.3 | 28.6 | -12.4 |
| AGUGGACCGAGGAAGGAAGGA [hsa-miR-4800-5p] | 44.8 | -9.53 | 2.75 |
| UAUCUGCUGGGCUUUCUGGUGUU [hsa-miR-4686] | 34.5 | -43.3 | 43.6 |
| CAAAGAAUUCUCCUUUUGGGCU [hsa-miR-186-5p] | 59.3 | 42.9 | -14.6 |
| AGCUCCCUGAAUCCCUGUCCCAG [hsa-miR-7106-3p] | 74.6 | 32.5 | -19.5 |
| AGGGACGGGACGCGGUGCAGUG [hsa-miR-92b-5p] | 75.4 | 34.3 | 2.12 |
| AGGCGGGGCGCCGCGGGACCGC [hsa-miR-663a] | 62.8 | 2.91 | 0.191 |
| GGUCGUAUGUGUGACGCCAUUU [hsa-miR-489-5p] | 63 | -3.91 | -3.74 |
| AAAUUCAUGUUCAAUCUAAACC [hsa-miR-4760-3p] | 68.6 | 10 | -13.1 |
| AAAAGCUGGGUUGAGAGGGU [hsa-miR-320c] | 64.7 | -0.437 | 1.49 |
| UCCCUGGAGUUUCUUCUU [hsa-miR-4308] | 53.7 | 27.5 | -7.67 |
| CUACAAAGGGAAGCCCUUUC [hsa-miR-520d-5p] | 39.7 | -47.9 | 28.4 |
| UUGCCAUGUCUAAGAAGAA [hsa-miR-4659b-5p] | 42 | -38.1 | 29.7 |
| CAGAAGGGGAGUUGGGAGCAGA [hsa-miR-3154] | 17.4 | -26.4 | 46.1 |
